Reference: the supplement of paper PMC9876800

Test system: peptide library, one residue held at a place counted from the S/T acceptor
Assay: relative phosphorylation of the sub-library (ratio to the mean residue at this position); higher = residue favoured
Details: human
Summary of the method: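 Relative sub-library phosphorylation is a ratio to the mean residue at the same position. Purified recombinant kinases were incubated under kinase-specific conditions with biotinylated degenerate peptide sub-libraries, each fixing one residue at one position around a central Ser/Thr, using 50 μM peptide and 50 μM ATP spiked with γ-32P-ATP for 90 min. Spots captured on streptavidin membranes were phosphorimaged and quantified by densitometry.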

ROCK1, construct: aa1-535, sequence (Q13464 1-535, looked up): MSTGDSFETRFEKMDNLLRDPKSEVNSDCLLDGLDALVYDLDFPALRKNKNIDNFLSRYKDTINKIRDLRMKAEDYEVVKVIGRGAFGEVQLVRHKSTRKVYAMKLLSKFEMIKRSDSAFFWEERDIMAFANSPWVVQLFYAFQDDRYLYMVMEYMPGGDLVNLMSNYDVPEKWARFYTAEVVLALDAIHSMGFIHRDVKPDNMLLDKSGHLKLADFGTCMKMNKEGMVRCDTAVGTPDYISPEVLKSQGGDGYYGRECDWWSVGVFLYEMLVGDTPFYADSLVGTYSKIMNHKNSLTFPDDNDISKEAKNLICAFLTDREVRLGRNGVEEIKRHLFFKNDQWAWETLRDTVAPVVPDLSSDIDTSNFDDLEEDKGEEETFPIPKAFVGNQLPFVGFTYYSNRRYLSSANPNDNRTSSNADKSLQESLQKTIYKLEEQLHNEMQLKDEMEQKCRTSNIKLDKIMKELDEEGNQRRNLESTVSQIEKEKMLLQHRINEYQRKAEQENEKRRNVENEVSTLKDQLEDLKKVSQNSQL
PRKD3, construct: Full length, sequence (O94806 whole entry, looked up): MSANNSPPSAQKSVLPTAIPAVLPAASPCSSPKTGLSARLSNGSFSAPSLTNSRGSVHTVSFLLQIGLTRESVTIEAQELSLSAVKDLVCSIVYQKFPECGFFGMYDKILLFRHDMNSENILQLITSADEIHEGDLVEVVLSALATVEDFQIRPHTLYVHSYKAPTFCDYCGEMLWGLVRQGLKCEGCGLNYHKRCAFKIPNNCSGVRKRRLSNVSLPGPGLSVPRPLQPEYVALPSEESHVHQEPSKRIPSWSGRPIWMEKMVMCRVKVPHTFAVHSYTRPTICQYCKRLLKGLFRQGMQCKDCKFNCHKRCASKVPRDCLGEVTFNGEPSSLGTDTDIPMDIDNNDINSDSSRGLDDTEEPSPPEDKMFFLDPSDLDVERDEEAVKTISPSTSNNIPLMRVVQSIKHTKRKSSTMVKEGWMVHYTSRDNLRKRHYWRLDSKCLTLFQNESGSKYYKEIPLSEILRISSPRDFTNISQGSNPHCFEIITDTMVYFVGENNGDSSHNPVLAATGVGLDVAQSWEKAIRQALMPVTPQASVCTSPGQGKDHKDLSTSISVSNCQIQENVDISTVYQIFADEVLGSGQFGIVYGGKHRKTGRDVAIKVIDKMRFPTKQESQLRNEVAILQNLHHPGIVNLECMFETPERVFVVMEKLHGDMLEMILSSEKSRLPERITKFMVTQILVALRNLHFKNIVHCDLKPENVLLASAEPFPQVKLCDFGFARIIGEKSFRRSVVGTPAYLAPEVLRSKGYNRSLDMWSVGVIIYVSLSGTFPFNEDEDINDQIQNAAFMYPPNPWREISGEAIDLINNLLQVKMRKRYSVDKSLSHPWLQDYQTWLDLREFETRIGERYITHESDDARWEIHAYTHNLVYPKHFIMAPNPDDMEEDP
SMG1, construct: Full length, sequence (Q96Q15 whole entry, looked up): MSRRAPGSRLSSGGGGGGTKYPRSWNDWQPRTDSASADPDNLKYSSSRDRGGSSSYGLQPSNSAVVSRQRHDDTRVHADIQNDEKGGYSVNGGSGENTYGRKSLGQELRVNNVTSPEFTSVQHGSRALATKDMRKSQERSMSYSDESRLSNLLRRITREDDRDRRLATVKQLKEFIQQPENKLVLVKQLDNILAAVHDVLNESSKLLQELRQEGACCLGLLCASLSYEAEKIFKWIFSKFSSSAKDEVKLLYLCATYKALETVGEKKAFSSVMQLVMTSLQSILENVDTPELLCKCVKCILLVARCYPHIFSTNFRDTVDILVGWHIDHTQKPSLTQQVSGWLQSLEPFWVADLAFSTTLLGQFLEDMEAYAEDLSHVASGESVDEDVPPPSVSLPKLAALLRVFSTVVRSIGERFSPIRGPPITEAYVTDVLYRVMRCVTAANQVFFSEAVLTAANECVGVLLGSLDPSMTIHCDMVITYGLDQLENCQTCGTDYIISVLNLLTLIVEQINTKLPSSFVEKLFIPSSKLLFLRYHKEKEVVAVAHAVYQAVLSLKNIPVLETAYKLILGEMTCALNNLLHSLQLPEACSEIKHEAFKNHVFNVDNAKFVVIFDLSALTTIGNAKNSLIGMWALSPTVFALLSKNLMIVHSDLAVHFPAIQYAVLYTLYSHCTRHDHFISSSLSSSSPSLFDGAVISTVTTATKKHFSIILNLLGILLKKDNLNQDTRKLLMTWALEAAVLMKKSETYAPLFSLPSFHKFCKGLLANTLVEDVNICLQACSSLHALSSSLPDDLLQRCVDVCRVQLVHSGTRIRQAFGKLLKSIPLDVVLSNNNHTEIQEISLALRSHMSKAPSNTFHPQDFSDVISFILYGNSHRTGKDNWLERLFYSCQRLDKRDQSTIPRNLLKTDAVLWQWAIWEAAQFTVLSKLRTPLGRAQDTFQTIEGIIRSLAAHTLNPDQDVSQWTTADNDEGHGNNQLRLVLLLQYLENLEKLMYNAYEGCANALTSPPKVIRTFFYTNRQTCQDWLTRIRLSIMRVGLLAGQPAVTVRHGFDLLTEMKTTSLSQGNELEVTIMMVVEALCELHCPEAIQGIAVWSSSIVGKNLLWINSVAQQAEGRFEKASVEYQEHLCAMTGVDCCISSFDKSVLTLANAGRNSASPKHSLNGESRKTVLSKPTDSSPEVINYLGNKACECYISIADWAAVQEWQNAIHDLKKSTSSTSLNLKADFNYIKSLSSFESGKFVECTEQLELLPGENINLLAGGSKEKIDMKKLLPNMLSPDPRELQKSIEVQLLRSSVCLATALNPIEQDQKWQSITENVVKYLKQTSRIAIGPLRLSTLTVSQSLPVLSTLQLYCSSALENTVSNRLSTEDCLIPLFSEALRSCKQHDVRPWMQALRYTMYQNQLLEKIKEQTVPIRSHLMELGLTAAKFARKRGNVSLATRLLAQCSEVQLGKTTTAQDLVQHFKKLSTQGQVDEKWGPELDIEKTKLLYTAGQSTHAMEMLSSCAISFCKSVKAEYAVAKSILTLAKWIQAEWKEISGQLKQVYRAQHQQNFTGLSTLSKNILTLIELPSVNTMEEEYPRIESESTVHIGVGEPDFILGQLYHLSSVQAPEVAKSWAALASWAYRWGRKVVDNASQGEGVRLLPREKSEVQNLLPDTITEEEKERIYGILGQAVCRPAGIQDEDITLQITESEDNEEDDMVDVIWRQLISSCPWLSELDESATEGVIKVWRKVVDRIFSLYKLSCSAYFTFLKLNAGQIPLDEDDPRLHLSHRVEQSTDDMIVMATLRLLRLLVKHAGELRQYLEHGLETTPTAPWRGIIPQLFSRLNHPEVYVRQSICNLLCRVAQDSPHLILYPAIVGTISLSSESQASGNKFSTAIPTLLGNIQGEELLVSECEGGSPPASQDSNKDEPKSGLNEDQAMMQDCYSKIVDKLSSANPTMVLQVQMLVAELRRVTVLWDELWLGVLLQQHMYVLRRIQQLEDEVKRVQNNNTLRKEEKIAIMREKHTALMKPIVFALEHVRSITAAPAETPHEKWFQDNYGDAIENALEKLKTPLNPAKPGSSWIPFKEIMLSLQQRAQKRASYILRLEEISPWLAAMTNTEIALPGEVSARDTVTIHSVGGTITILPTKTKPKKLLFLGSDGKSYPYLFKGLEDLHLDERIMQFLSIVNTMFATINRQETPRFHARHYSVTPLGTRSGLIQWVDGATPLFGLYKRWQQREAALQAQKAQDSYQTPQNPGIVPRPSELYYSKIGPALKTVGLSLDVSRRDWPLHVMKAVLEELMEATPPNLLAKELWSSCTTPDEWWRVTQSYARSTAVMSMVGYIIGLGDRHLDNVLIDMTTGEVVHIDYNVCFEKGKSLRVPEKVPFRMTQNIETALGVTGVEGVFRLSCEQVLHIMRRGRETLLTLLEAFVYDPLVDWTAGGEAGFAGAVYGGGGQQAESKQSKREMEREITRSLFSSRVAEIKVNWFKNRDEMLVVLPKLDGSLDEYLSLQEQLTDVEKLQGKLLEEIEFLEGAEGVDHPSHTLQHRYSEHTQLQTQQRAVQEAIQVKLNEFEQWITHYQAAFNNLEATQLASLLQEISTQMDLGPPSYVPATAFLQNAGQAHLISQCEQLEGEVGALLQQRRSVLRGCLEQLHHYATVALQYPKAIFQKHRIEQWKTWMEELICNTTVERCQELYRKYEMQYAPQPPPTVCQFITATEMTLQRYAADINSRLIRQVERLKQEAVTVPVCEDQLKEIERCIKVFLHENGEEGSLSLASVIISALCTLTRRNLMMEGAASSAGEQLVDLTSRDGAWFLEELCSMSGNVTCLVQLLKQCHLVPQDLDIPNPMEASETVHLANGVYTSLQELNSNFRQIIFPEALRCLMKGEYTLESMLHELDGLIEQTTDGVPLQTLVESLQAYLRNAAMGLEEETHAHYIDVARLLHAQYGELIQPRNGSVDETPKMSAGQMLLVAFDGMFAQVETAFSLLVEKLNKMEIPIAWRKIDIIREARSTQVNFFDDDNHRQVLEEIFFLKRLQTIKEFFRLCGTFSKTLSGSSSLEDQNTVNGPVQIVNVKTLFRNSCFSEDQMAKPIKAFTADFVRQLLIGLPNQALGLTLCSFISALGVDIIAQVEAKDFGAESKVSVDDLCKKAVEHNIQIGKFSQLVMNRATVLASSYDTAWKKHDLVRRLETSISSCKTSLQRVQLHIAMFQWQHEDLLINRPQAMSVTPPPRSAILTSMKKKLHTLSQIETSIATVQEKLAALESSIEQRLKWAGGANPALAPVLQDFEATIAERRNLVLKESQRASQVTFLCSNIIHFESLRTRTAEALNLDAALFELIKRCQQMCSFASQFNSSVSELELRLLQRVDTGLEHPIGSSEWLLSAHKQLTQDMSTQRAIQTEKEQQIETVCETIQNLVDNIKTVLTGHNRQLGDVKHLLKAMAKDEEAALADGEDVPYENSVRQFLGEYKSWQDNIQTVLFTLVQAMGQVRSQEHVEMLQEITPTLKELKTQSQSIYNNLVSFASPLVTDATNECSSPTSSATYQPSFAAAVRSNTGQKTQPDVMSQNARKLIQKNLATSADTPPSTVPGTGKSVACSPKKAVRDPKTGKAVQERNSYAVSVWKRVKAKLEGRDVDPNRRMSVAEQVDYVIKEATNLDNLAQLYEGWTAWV

PRKD3, construct: Full length (from UniProt O94806)
relative phosphorylation
Details	at +1	at +2	at +3	at +4	at -1	at -2	at -3	at -4	at -5
A fixed	0.865	1.03	0.829	0.85	0.845	1.21	1.03	1.31	0.989
D fixed	0.493	0.636	0.664	0.709	0.598	0.341	0.231	0.402	0.344
E fixed	0.444	0.536	0.561	0.66	0.486	0.418	0.272	0.711	0.332
F fixed	1.09	1.07	1	1.09	0.812	0.56	0.417	0.797	0.895
G fixed	0.727	1.06	1.17	1.21	0.6	0.453	0.375	1.21	0.563
H fixed	1.33	1.36	1.22	1.29	1.15	0.839	0.572	1.14	0.525
I fixed	1.02	0.628	0.744	0.795	0.526	0.496	0.321	0.678	1.11
K fixed	1.31	1.27	1.21	1.22	2.07	2.85	2.2	1.98	0.895
L fixed	1.06	0.824	0.957	0.908	1.18	0.867	0.359	0.809	3.37
M fixed	1.16	0.929	0.883	0.854	1.03	1.43	0.444	1.15	0.774
N fixed	1.48	1.26	1.02	1.1	1.38	0.795	0.418	0.649	0.483
P fixed	0.453	1.24	1.72	1.31	1.1	0.374	0.478	0.476	1.08
Q fixed	1.08	0.877	0.984	1.1	0.889	1.83	0.588	1.16	0.866
R fixed	1.28	1.38	1.05	0.774	1.79	2.58	8.02	2.12	1.8
V fixed	0.988	0.718	0.812	0.774	0.751	0.778	0.333	0.85	1.61
W fixed	0.885	1.05	0.991	1.31	0.708	0.526	0.436	0.638	0.544
Y fixed	1.35	1.12	1.19	1.04	1.08	0.657	0.51	0.934	0.827
pThr fixed	0.532	0.513	0.622	0.51	0.321	0.349	0.266	0.508	0.377
pTyr fixed	0.589	0.609	0.669	0.608	0.662	0.409	0.495	0.511	0.572

ROCK1, construct: aa1-535 (from UniProt Q13464)
relative phosphorylation
Details	at +1	at +2	at +3	at +4	at -1	at -2	at -3	at -4	at -5
A fixed	0.632	0.883	1.01	0.721	0.745	0.528	0.549	0.906	0.953
D fixed	0.366	0.412	0.54	0.674	0.384	0.203	0.219	0.44	0.454
E fixed	0.358	0.39	0.488	0.656	0.303	0.188	0.231	0.525	0.462
F fixed	0.758	0.678	1.11	1.13	0.579	0.42	0.343	0.653	0.703
G fixed	0.706	0.773	1.42	1.06	1.03	0.534	0.577	1.1	1.06
H fixed	0.963	1.13	1.23	1.15	1.23	1.12	1.35	1.15	1.19
I fixed	1.43	1.13	0.81	0.866	0.52	0.268	0.28	0.532	0.603
K fixed	1.1	1.6	1.08	1.35	2.43	2.69	2.63	2.22	2.44
L fixed	1.57	1.2	1.01	1.06	1.02	0.359	0.316	0.571	0.495
M fixed	1.64	0.968	0.913	0.999	1.06	0.448	0.352	0.732	0.586
N fixed	1.38	0.854	0.988	1.15	1.14	0.906	0.575	0.89	0.878
P fixed	0.224	0.727	1.15	0.994	0.816	0.43	0.412	0.891	0.931
Q fixed	1.33	0.866	0.897	1.12	1.11	0.842	0.703	0.88	0.83
R fixed	2.22	2.27	1.34	1.37	2.27	6.35	7.13	3.19	3.2
V fixed	0.969	1.26	0.818	0.709	0.648	0.317	0.293	0.657	0.672
W fixed	0.704	0.808	1.16	1.07	0.673	0.774	0.562	0.885	0.759
Y fixed	0.648	1.05	1.03	0.927	1.05	0.623	0.485	0.777	0.778
pThr fixed	0.432	0.607	0.507	0.658	0.315	0.378	0.392	0.712	0.745
pTyr fixed	0.477	0.576	0.731	0.674	0.525	0.329	0.407	0.625	0.817

SMG1, construct: Full length (from UniProt Q96Q15)
relative phosphorylation
Details	at +1	at +2	at +3	at +4	at -1	at -2	at -3	at -4	at -5
A fixed	0.603	0.979	1.02	0.957	0.855	1.26	1.21	1.23	1.18
D fixed	0.453	1.12	1.33	0.91	0.348	0.521	0.669	0.674	0.649
E fixed	0.336	0.964	1.15	0.799	0.298	0.645	0.836	0.829	0.693
F fixed	0.533	0.966	1.12	1.28	1.35	1.25	1.44	1.3	1.39
G fixed	0.603	0.924	0.974	0.933	0.646	1.29	1.03	1.26	1.28
H fixed	0.522	0.991	0.858	1.06	0.939	1.04	0.972	1.02	1.07
I fixed	0.539	0.841	0.899	0.883	0.662	1.08	0.874	0.926	0.924
K fixed	0.581	0.711	0.62	0.779	0.725	0.698	0.604	0.614	0.67
L fixed	0.739	0.889	0.853	0.943	4.37	1.2	0.965	1.01	0.958
M fixed	0.55	1.03	1.07	1	2.27	1.26	1.33	1.08	1.03
N fixed	0.841	0.832	0.854	0.806	0.722	0.82	0.766	0.73	0.701
P fixed	0.567	1.39	0.996	1.12	0.558	0.807	0.817	0.855	1
Q fixed	7.53	1.13	0.832	0.867	0.822	0.877	0.83	0.766	0.729
R fixed	0.875	0.818	0.931	0.85	0.615	0.751	0.687	0.677	0.781
V fixed	0.567	0.946	0.913	0.881	0.474	0.996	0.912	0.93	0.964
W fixed	0.545	1.26	1.31	1.53	0.53	1.08	1.36	1.55	1.6
Y fixed	0.613	1.2	1.28	1.39	0.823	1.42	1.7	1.55	1.38
pThr fixed	0.386	1.04	1.82	1.03	0.365	0.661	0.999	1.11	1.1
pTyr fixed	0.416	0.704	1.06	1.41	0.539	1.27	1.71	1.65	1.47
